Laboratory results taken from the supplement of paper PMC9170038.

The sequences below were run on K4 kissing-loop RNA reporter (assay: apparent KD of K4 kissing-loop reporter; higher = weaker reporter binding). Conditions: Eterna round: R107; input ligand: none.
Description: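 RNA-MaP round R107: designed RNA switches with theophylline, tryptophan, arginine or FMN aptamers are transcribed on-chip within common flanks. They are titrated with a labelled K4 kissing-loop RNA reporter in RNA-MaP buffer (100 mM Tris pH 7.5, 80 mM KCl, 4 mM MgCl2), without ligand or with the indicated ligand. Median apparent KD per design.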
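Note: bound reporter read as fluorescence of individual clusters on recovered sequencing chips by microscopy, with normalized cluster intensities fitted with a binding model.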

Sequence | apparent KD of K4 kissing-loop reporter [nM]
AACUCUCAGACACUUGAGUGAUGUUCAGGCCGAGGACCGGUACGGCCGCCACUCGGGUCUGAGAGAGGUUAUCAAAGAUAGCCAA [Omei KL Tryp A SS A v5] | 249
AAAUAGAUCAGUCAACCAGUGAUGUUGGAAGGAGCGUGCGAAAGCACAGGUAGGUCGCCAUAAUAAAAUUGGCUGAUCAAAAUAA | 648
ACUGAGUUGACGAAAGUCAACAAUUGAGAAGGAGCGCACGAAAGUGCAGGUAGGUCGCUCAGUCCAGUGAUGUUGGAUCAUCAGA [#17 K4 Arginine A Same State] | 383
AAGUGAUGUUGUAGUGAUGUUGUGAUGUUGCAGGAUAUAUAGUGAUGUAGAAGGGUAUGUGCAGUGUUCUUAUUUGAGUGUUGAU [zffdmullin] | 64.7
AGAGAUAAGGCGGCCGCCACUAAGAUGAAACUAACGGUCAAGUGAUGUUUGCGGUUACAGUUCAGUAGGACCGGGCCGAGUAAAU [theeternabot_sameState_KL_Trp_B_47] | 407
CCCAAGGGCCUACCGGUAUUAUUAACGGAUACCAGAGGCGAAAGCCUCCCUUGGCAGCCGGGUGUAGUGAUGUUACUCCGGUAGU | 70.2
CAGCCCAAAUGGCGAGAAGUGUUCCUUAGUCGAGGACCGGUACGGCCGCCACUCGCUCUAAACAUUAGGAGUGAUGUUCCAUUAG | 215
CCAUCGCUAUUCGAUACCAGCUCCUUAGUGAUGUUAAGGUUUUACCCUCUGUAGGAGGGAAGCCCUUGGCAGCGAGUAGUGAUGG [#03 K4 Theophylline B Same State] | 948
UAUAUAGUGAUGUUAUAUGGGAAGGAGUUACGAGGACCGGUACGGCCGCCACUCGAAACGAGUGAGGAUUUGGGAGAUUGGGUUU [SSTryptA.S] | 206
AUUAAUUUCAGAGGAUAUCGUUAUUUUUUUUAUUUUAUUCAUUUAUGCAGUGAUGUUGCUAUUAUUCGAGAAGGCUGAUUUAUAA [JR_ExcFMNB_Sub005] | 62.9
CGCCGGAAGGCGAGCGCUCCCACUCCGGAAGGAGCGCCCGGAAGGGCAGGUAGGUCGCCGGAGUGAUGUUCCGGUGGAGGGCUCG [#2 Exclusion - Arginine A Attempt #11 (Inspired by Omei)] | 164
GAGAUGCACCAGUCUUAACGUGACUUAUCCCGAGGACCGGUACGGCCGCCACUCGCGUACUACUAGUGAUGUUGGUCAGUAUGAG [theeternabot_sameState_KL_Trp_A_26] | 215
CGCUGGGCGAGUGAUGUUCGCUCACGUGAUACCAGUGCAAUCCAACACCCUUGGCAGCACGCGGGCAGUGAUGUUGUCCUUAGUG [Exclusion Theophylline A GF12] | 157
CUCGAGUGAUGUUCGAUUAUUUAUACAGAUACCAGUGAAUUUUAACACCCUUGGCAGCUGGUUGUAUCAUUGUUUUUUACAAAAG [JR_ExcTheophyA_Sub007] | 117
CAUCUGGACCAAGGAUAUGUGGGCAUAAUAAAAUUACCACCUUAUUUGCAGUAAGUGAUGUUUAACACAGAAGGUGGACAUAGAC [theeternabot_exclusion_KL_FMN_B_10] | 1170
GGACGCCGGUCGGCCGCCACUCACAGCAGUGAUGUUCCUGAGAAUGUAGCGGAGUGAUGUUCCGAGAGGACCGGGACUGCAGUUU [Same State Tryptophan B GF 8] | 777
GUUGAUCAUGGAAGGAGCGCCCAUUGUCGACACGAGUGAUGUUCGUGUCGUUAAUUAUGAGGGCAGGUAGGUCGCCGUGUGCUUU [Soqugebi] | 130
UGACUGGAUGGAAGGAGCGCUAAACUCCUAGUGAUGUUAGGGAUAUGAGGCAAAGCCUUGAAGCAGGUAGGUCGCCAUCUAGUCU [FiskerMod 26 - Jieux - Same State - Arginine B] | 146
AGACUACCACACUGUCAAUAGACAGUGAGCUAGGAUAUGCUGAUAAGCAGAAGGAGUGAUGUUCCCAGGUAGUCAAUAAAAUAAU [FmnAX 13 G29+C66] | 231
GCUAAGUGAUGUUUAUGCCGCCGACCGGAUACCAGCUACUAGGCAAGCCCUUGGCAGCCGCUAUGUGACCGAUCAUUAGUUAUGU [theeternabot_exclusion_KL_Theo_A_6] | 913
CGAGUGAUGUUCGUUUUUUUAUUUUUUUGACAGGAUAUGCGGAAACGCAGAAGGGUCACCUUUGAGUUAAAAGAAUUUAAAUUAU [Ex FMN A 23] | 254

Same assay, conditions: Eterna round: R107; input ligand: theophylline 20 uM

Sequence | apparent KD of K4 kissing-loop reporter [nM]
AGUACAAUGGCGGCCGCCACUCAACGCAGAUCAAAGAUCUGCGUUCACUCAGUGAUGUUGAGUGAGAGGACCGGGCCUUUGUACA [Omei KL Tryp B SS B v5] | 170
UGUCAUUGGUCGGCCGCCACUGAAAUAAAAGAGUGAUGUUCUUAAAAGACGGACAAAGUCUGUCAUAGGACCGGGACCGAUGACU [TrypBS 24 #SwitchBubble #StaticStem] | 369
UAUUAAUUGUCAGGAUAUCGUAUUCGAGUGAUGUUCGUAUAUCGACGAUAGUCGAUAUUAUCUAUACGAGAAGGGACAUUAUUUA [JR_SSFMNB_Sub006] | 341
UGCUUUAUCAGAAGGAGCGCGUAAGUUAUACUAAUAAUCAGUGAUGUUGAUAUAUGAUCUUUGCAGGUAGGUCGCUGAUAUAGCU [KL-XARG-B4] | 467
UUUAAAUAUAGUGAUGUUAUAUAACAAUGACGAGGACCGGUACGGCCGCCACUCGAGAGAGAUAAUGGUCUUACAAAUGUAAGUC [AstrosSSTryA#8] | 738
GGAAUAACCUGGGAUACCAGUCGGAGGACUAGGGAUCGGAGUGAUGUUCUGGGAUGUUUCGGCCCUUGGCAGCUCUGGUUUUCCG [#2 Exclusion - Theophylline B Attempt #1 (HarryS)] | 614
AUGACGGGUAGUGAUGUUAUCCACGAUGGGAAGGAUAUCAACCGUGUGAGAAGGUCCUUAUCGGUGCGGCACAUGCAGGUACUAC [theeternabot_sameState_KL_FMN_A_41] | 452
UGAUACCAGGCGGCCGCCACUCCUGCAGGUCAAAGACCUGUGAAGCUGGUUCUCCAGUGAUGUUGGAGGACCGGGCCUGGUAUCU [FiskerMod 27 - Jieux - Exclusion - Tryptophan B] | 179
AAGGCACGGCUUCGGCCGUGCCAAAUAGAUACCAGCAUAAUAAUAUGCCCUUGGCAGCUAAAUAGAAAUUCAGUGAUGUUGGAUA [SS Theo A Tesla 2.1] | 586
AGAUGUUUAGCUCAAAGAACGAAAAUGGAAGGAGCGUGCGAAAGCACAGGUAGGUCGCCAGUGAUGUUGGAACCUGAGCAUCAAA [#SwitchBubble 16 #K4Late] | 244
UUAACCAACAGCGAUACCAGCGUGGAGUGAUGUUCCGAGGAUCGGAGUGAUGUUCCGAAGCGCCCUUGGCAGCGCAGAAGCGCAA [Exclusion Theophylline B GF8] | 251
ACCUACCAUUAGUGAUGUUAAUGGACGGAAGGAGCGCAGAUAUCUGCAGGUAGGUCGCCGAAGGCUAGACAUUGUCUAGCCAUUA [AK1.1 SS Arginine A] | 163
CCUAUCUCUUACGAUACCAGUCAAUGAUAUUUUAUCAAUGCCCUCACCGAGUGAUGUUCGGACCCUUGGCAGCGUAUGGGAUAGG [kjnjmullin] | 175
GUUACGCAUGGAAGGAGCGCGAAUUUAAUUAGUGAGUGAUGUUCACAUAAAAUGUAUAAUACGCAGGUAGGUCGCCAUGUGUAAC [whbob_Ex_Arginine_B_2th163] | 85.7
UCCUGCAAUCCACCACGAAAGUGGAUGGAUACCAGAGUCGAAAGACUCCCUUGGCAGCCAGUGAUGUUGGAGCAGGUAAAAUAAA | 402
AGUUAUGUAUCAGGAUAUUAGUGAUGUUUGUUUUUGUUAGUGAUGUUGAUAUUUGUUUUAUGUAUUUAAGAAGGGAUUGAGAUGU [qsszmullin] | 29.4

Sequence | apparent KD of K4 kissing-loop reporter [nM]
ACAGGAUCGAAGAUCCUGAGCAGUCAAAACCGAGGACCGGUACGGCCGCCACUCGGAGUGAUGUUCCGAAGACUGCAAAAUAAAA [#SwitchBubble 3] | 1010
AAAUAAAGCAGUCACCCAGUGAUGUUGGAAGGAGCGUGCGAAAGCACAGGUAGGUCGCCAAAAUAAAGUGGCUGCGGCAAAGCCA [#SwitchBubble 25 #K4Early] | 578
GCCAGAGCGCGAAGGAGCGCCCUGACAGGUUGCUGCCGUGGGCAGUGAUGUUGCUCAGUCCGGCAGGUAGGUCGCGUGCUCUGGC | 196
UGUCAUUGGUCGGCCGCCACUUCAAGGUCAAAGACCAAAGAGUGAUGUUCUAAGACGAAAGUCAGAAGGACCGGGACCGAUGACU [TrypBS 10 #SwitchBubble #K4Middle] | 223
ACGCAUGGGCAAGGAUAUGGUAGUGAUGUUACCUUUGCGGUGCCGGGAACGAAUGACGGUCAUGCGCCAGAAGGUGCUCAGACAA [theeternabot_exclusion_KL_FMN_B_23] | 250
AACUCUCAGACACUUGAGUGAUGUUCAGGCCGAGGACCGGUACGGCCGCCACUCGGGUCUGAGAGAGGUUAUCAAAGAUAGCCAA [Omei KL Tryp A SS A v5] | 261
AAAUAGAUCAGUCAACCAGUGAUGUUGGAAGGAGCGUGCGAAAGCACAGGUAGGUCGCCAUAAUAAAAUUGGCUGAUCAAAAUAA | 614
ACUGAGUUGACGAAAGUCAACAAUUGAGAAGGAGCGCACGAAAGUGCAGGUAGGUCGCUCAGUCCAGUGAUGUUGGAUCAUCAGA [#17 K4 Arginine A Same State] | 478
AAGUGAUGUUGUAGUGAUGUUGUGAUGUUGCAGGAUAUAUAGUGAUGUAGAAGGGUAUGUGCAGUGUUCUUAUUUGAGUGUUGAU [zffdmullin] | 63.2
AGAGAUAAGGCGGCCGCCACUAAGAUGAAACUAACGGUCAAGUGAUGUUUGCGGUUACAGUUCAGUAGGACCGGGCCGAGUAAAU [theeternabot_sameState_KL_Trp_B_47] | 412
CCCAAGGGCCUACCGGUAUUAUUAACGGAUACCAGAGGCGAAAGCCUCCCUUGGCAGCCGGGUGUAGUGAUGUUACUCCGGUAGU | 63.2
CAGCCCAAAUGGCGAGAAGUGUUCCUUAGUCGAGGACCGGUACGGCCGCCACUCGCUCUAAACAUUAGGAGUGAUGUUCCAUUAG | 335
CCAUCGCUAUUCGAUACCAGCUCCUUAGUGAUGUUAAGGUUUUACCCUCUGUAGGAGGGAAGCCCUUGGCAGCGAGUAGUGAUGG [#03 K4 Theophylline B Same State] | 623
UAUAUAGUGAUGUUAUAUGGGAAGGAGUUACGAGGACCGGUACGGCCGCCACUCGAAACGAGUGAGGAUUUGGGAGAUUGGGUUU [SSTryptA.S] | 208
AUUAAUUUCAGAGGAUAUCGUUAUUUUUUUUAUUUUAUUCAUUUAUGCAGUGAUGUUGCUAUUAUUCGAGAAGGCUGAUUUAUAA [JR_ExcFMNB_Sub005] | 146
